B1: MEKK1 cleavage fragment C (protein)
chain: GHQDSLQAVAPTSCLENSSLEHTVHREKTGKGLSATRLSASSEDISDRLAGVSVGLPSSTTTEQPKPAVQTKGRPHSQCLNSSPLSHAQLMFPAPSAPCSSAPSVPDISKHRPQAFVPCKIPSASPQTQRKFSLQFQRNCSEHRDSDQLSPVFTQSRPPPSSNIHRPKPSRPVPGSTSKLGDATKSSMTLDLGSASRCDDSFGGGGNSGNAVIPSDETVFTPVEDKCRLDVNTELNSSIEDLLEASMPSSDTTVTFKSEVAVLSPEKAENDDTYKDDVNHNQKCKEKMEAEEEEALAIAMAMSASQDALPIVPQLQVENGEDIIIIQQDTPETLPGHTKAKQPYREDAEWLKGQQIGLGAFSSCYQAQDVGTGTLMAVKQVTYVRNTSSEQEEVVEALREEIRMMGHLNHPNIIRMLGATCEKSNYNLFIEWMAGGSVAHLLSKYGAFKESVVINYTEQLLRGLSYLHENQIIHRDVKGANLLIDSTGQRLRIADFGAAARLASKGTGAGEFQGQLLGTIAFMAPEVLRGQQYGRSCDVWSVGCAIIEMACAKPPWNAEKHSNHLALIFKIASATTAPSIPSHLSPGLRDVAVRCLELQPQDRPPSRELLKHPVFRTTW
B2: HA-tagged full length mouse MEKK1 (196 kDa; plasmid MEKK1.cp4, expressed in HEK293 cells) (protein)
chain: MGYPYDVDYASMAAAAGDRASSSGFPGAAAASPEAGGGGGGGGALQGSGAPAAGAAGLLREPGSAGRERADWRRRQLRKVRSVELDQLPEQPLFLAAASPPCPSTSPSPEPADAAAGASRFQPAAGPPPPGAASRCGSHSAELAAARDSGARSPAGAEPPSAAAPSGREMENKETLKGLHKMEDRPEERMIREKLKATCMPAWKHEWLERRNRRGPVVVKPIPIKGDGSEVNNLAAEPQGEGQAGSAAPAPKGRRSPSPGSSPSGRSVKPESPGVRRKRVSPVPFQSGRITPPRRAPSPDGFSPYSPEETSRRVNKVMRARLYLLQQIGPNSFLIGGDSPDNKYRVFIGPQNCSCGRGAFCIHLLFVMLRVFQLEPSDPMLWRKTLKNFEVESLFQKYHSRRSSRIKAPSRNTIQKFVSRMSNSHTLSSSSTSTSSSENSIKDEEEQMCPICLLGMLDEESLTVCEDGCRNKLHHHCMSIWAEECRRNREPLICPLCRSKWRSHDFYSHELSSPVESPASLRAVQQPSSPQQPVAGSQRRNQESSFNLTHFGTQQIPSAYKDLAEPWIQVFGMELVGCLFSRNWNVREMALRRLSHDVSGALLLANGESTGNSGGGSGGSLSAGAASGSSQPSISGDVVEACCSVLSIVCADPVYKVYVAALKTLRAMLVYTPCHSLAERIKLQRLLRPVVDTILVKCADANSRTSQLSISTVLELCKGQAGELAVGREILKAGSIGVGGVDYVLSCILGNQAESNNWQELLGRLCLIDRLLLEFPAEFYPHIVSTDVSQAEPVEIRYKKLLSLLTFALQSIDNSHSMVGKLSRRIYLSSARMVTAVPAVFSKLVTMLNASGSTHFTRMRRRLMAIADEVEIAEVIQLGVEDTVDGHQDSLQAVAPTSCLENSSLEHTVHREKTGKGLSATRLSASSEDISDRLAGVSVGLPSSTTTEQPKPAVQTKGRPHSQCLNSSPLSHAQLMFPAPSAPCSSAPSVPDISKHRPQAFVPCKIPSASPQTQRKFSLQFQRNCSEHRDSDQLSPVFTQSRPPPSSNIHRPKPSRPVPGSTSKLGDATKSSMTLDLGSASRCDDSFGGGGNSGNAVIPSDETVFTPVEDKCRLDVNTELNSSIEDLLEASMPSSDTTVTFKSEVAVLSPEKAENDDTYKDDVNHNQKCKEKMEAEEEEALAIAMAMSASQDALPIVPQLQVENGEDIIIIQQDTPETLPGHTKAKQPYREDAEWLKGQQIGLGAFSSCYQAQDVGTGTLMAVKQVTYVRNTSSEQEEVVEALREEIRMMGHLNHPNIIRMLGATCEKSNYNLFIEWMAGGSVAHLLSKYGAFKESVVINYTEQLLRGLSYLHENQIIHRDVKGANLLIDSTGQRLRIADFGAAARLASKGTGAGEFQGQLLGTIAFMAPEVLRGQQYGRSCDVWSVGCAIIEMACAKPPWNAEKHSNHLALIFKIASATTAPSIPSHLSPGLRDVAVRCLELQPQDRPPSRELLKHPVFRTTW

Molecular target: recombinant kinase inactive SEK1 (SEK1 K→M)

Row | Protein | phosphorylation of SEK1 K→M by immunoprecipitates (in vitro kinase assay)
1 | B1 | a stronger SEK1 phosphorylation signal was detected
2 | B2 | When the full length MEKK1 protein was immunoprecipitated by the 12CA5 antibody it had measureable autophosphorylation and activity towards SEK1

Reference: patent US20020055130
